{"source": "patent US20240384323A1", "about": "“METHOD FOR DETERMINING PROTEASE ACTIVITY IN A BIOLOGICAL SAMPLE” (CytomX Therapeutics, Inc., priority 2021, published 2024)", "proteins": {"B1": {"name": "Recombinant human MT-SP1 (membrane type serine protease 1; R&D Systems 3946-SEB) (protein)", "chain": "VVGGTDADEGEWPWQVSLHALGQGHICGASLISPNWLVSAAHCYIDDRGFRYSDPTQWTAFLGLHDQSQRSAPGVQERRLKRIISHPFFNDFTFDYDIALLELEKPAEYSSMVRPICLPDASHVFPAGKAIWVTGWGHTQYGGTGALILQKGEIRVINQTTCENLLPQQITPRMMCVGFLSGGVDSCQGDSGGPLSSVEADGRIFQAGVVSWGDGCAQRNKPGVYTRLPLFRDWIKENTGV"}}, "target": "T1, IQ Probe (internally quenched linear polypeptide containing the S01 substrate)", "T1 chain": "LSGRSDNH", "data": [{"protein": "B1", "values": [{"measurement": "kcat/KM of the S01 substrate, IQ Probe relative to C225-S01", "value": "4.6× and 3.5× times, respectively"}]}]}
